# Reference: patent US20150175665A1 (IPSEN PHARMA S A S, published 2015)
# T1: human recombinant GIP receptor (human, UniProt P48546 22-466)
# T1 construct: whole, on cells; Assayed as washed membranes of CHO-K1 cells expressing the receptor; also called hGIP receptor
# T1 sequence (looked up): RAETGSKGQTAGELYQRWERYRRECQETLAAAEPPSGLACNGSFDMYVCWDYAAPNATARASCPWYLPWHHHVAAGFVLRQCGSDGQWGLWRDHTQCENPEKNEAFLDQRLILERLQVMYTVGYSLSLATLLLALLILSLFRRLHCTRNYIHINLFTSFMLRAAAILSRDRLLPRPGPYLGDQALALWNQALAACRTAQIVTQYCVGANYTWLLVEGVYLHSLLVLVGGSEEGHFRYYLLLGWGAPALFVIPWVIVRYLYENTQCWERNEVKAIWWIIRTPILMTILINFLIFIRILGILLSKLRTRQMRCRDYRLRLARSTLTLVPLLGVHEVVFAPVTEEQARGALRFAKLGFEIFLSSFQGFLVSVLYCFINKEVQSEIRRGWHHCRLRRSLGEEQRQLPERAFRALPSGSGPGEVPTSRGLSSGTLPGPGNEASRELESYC
# B1: (4Hppa^1, Aib^2, A5c^7, Nle^14)hGIP(1-30)-NH2 (peptide)
# peptide: XXEGTFXSDYSIAXDKIHQQDFVNWLLAQK
# modifications: 4Hppa (3-(4-hydroxyphenyl)propionic acid) at 1; Aib at 2; A5c at 7; Nle at 14; C-terminal amide
# Target: T1, human recombinant GIP receptor
# Assay: displacement of [125I]GIP, membranes of CHO-K1 cells expressing human GIP receptor
# Protocol: Membranes for in vitro receptor binding assays were prepared by homogenizing the CHO—K1 clonal cells expressing the human recombinant GIP receptor, with a Brinkman Polytron (setting 6, 15 sec), in ice-cold 50 mM Tris-HCl and then subjected to two centrifugations at 39,000 g for 10 minutes, with a resuspension in fresh buffer in between. For the assay, aliquots of the washed membrane preparations were incubated (100 minutes at 25° C. with 0.05 nM [¹²⁵1]GIP (2200 Ci/mmol) in 50 mM Tris-HCl, 0.1 mg/ml bacitracin, and 0.1% BSA. The final assay volume was 0.5 ml. The incubations were terminated by rapid filtration through GF/C filters (pre-soaked in 0.5% polyethylenimine) using a Brandel filtration manifold. Each tube and filter were then washed three times with 5-ml aliquots of ice-cold buffer.
# Specific binding was defined as the total radioligand bound minus that bound in the presence of 1000 nM GIP.
row,Ki [nM],Binder
1,12.6,B1
2,20.3,"XXEGTFISDYXIAXDKIHQQDFVNWLLAQK (4Hppa at 1; Aib at 2 and 11; Nle at 14; C-terminal amide) [(4Hppa^1, Aib^2, 11, Nle^14)hGIP(1-30)-NH2]"
3,3.33,"HXEGTFISDYSIXXDKIHQQDFVNWLLAQKGKKNDWKHNITQ (Aib at 2 and 13; Nle at 14) [(His^1, Aib^2, 13, Nle^14)hGIP(1-42)-OH]"
4,26,"FXEGTFISDYXIAXDKIHQQDFVNWLLAQKGKKNDWKHNITQ (3,5F-Phe at 1; Aib at 2; A5c at 11; Nle at 14) [(3,5F-Phe^1, Aib^2, A5c^11, Nle^14)hGIP(1-42)-OH]"
5,77.3,"XXEGTFISDYXIAXDKIHQQDFVNWLLAQKGKKNDWKHNITQ (hTyr at 1; Aib at 2; A5c at 11; Nle at 14) [(hTyr^1, Aib^2, A5c^11, Nle^14)hGIP(1-42)-OH]"
6,2.7,"FXEGTFISDYXIAXDKIHQQDFVNWLLAQKGKKNDWKHNITQ (3F-Phe at 1; Aib at 2; A5c at 11; Nle at 14) [(3F-Phe^1, Aib^2, A5c^11, Nle^14)hGIP(1-42)-OH]"
7,0.73,"YXEGTFISDYXIAMDKIHQQDFVNWLLAQKGKKNDWKHNIXQ (Tyr(Ac) at 1; Aib at 2; A5c at 11 and 41) [[Tyr(Ac)^1, Aib^2, A5c^11, 41]hGIP(1-42)-OH]"
8,95,"FXEGTFISDYXIAXDKIHQQDFVNWLLAQKGKKNDWKHNITQ (4NH2CH2-Phe at 1; Aib at 2; A5c at 11; Nle at 14) [(4NH2CH2-Phe^1, Aib^2, A5c^11, Nle^14)hGIP(1-42)-OH]"
9,15.7,"FXEGTFISDYXIAXDKIHQQDFVNWLLAQKGKKNDWKHNITQ (3,4F-Phe at 1; Aib at 2; A5c at 11; Nle at 14) [(3,4F-Phe^1, Aib^2, A5c^11, Nle^14)hGIP(1-42)-OH]"
10,1.24,"YXEGTFISDYXIAMDKIHQQDFVNWLLAQKGKKNDWKHNIXQ (3MeO-Tyr at 1; Aib at 2; A5c at 11 and 41) [(3MeO-Tyr^1, Aib^2, A5c^11, 41)hGIP(1-42)-OH]"
11,9.4,"XXEGTFISDYXIAXDKIHQQDFVNWLLAQKGKKNDWKHNITQ (Cpa (4-Cl-phenylalanine) at 1; Aib at 2; A5c at 11; Nle at 14) [(Cpa^1, Aib^2, A5c^11, Nle^14)hGIP(1-42)-OH]"
12,6.69,"YXEGTFISDYXIAMDKIHQQDFVNWLLAQKGKKNDWKHNIXQ (3OH-Tyr at 1; Aib at 2; A5c at 11 and 41) [(3OH-Tyr^1, Aib^2, A5c^11, 41)hGIP(1-42)-OH]"
13,31.1,"FXEGTFISDYXIAXDKIHQQDFVNWLLAQKGKKNDWKHNITQ (3,4,5F-Phe at 1; Aib at 2; A5c at 11; Nle at 14) [(3,4,5F-Phe^1, Aib^2, A5c^11, Nle^14)hGIP(1-42)-OH]"
14,3.4,"FXEGTFISDYXIAXDKIHQQDFVNWLLAQKGKKNDWKHNITQ (4NH2-Phe at 1; Aib at 2; A5c at 11; Nle at 14) [(4NH2-Phe^1, Aib^2, A5c^11, Nle^14)hGIP(1-42)-OH]"
15,5.03,"YXEGTFISDYXIAXDKIHQQDFVNWLLAQKGKKNDWKHNITQ (3I-Tyr at 1; Aib at 2; A5c at 11; Nle at 14) [(3I-Tyr^1, Aib^2, A5c^11, Nle^14)hGIP(1-42)-OH]"
16,77.9,"YXEGTFISDYXIAXDKIHQQDFVNWLLAQKGKKNDWKHNITQ (3,5I-Tyr at 1; Aib at 2; A5c at 11; Nle at 14) [(3,5I-Tyr^1, Aib^2, A5c^11, Nle^14)hGIP(1-42)-OH]"
17,5.43,"FXEGTFISDYXIAMDKIHQQDFVNWLLAQKGKKNDWKHNIXQ (3F-Phe at 1; Aib at 2; A5c at 11 and 41) [(3F-Phe^1, Aib^2, A5c^11, 41)hGIP(1-42)-OH]"
18,14.4,"FXEGTFISDYXIAMDKIHQQDFVNWLLAQKGKKNDWKHNIXQ (4CN-Phe at 1; Aib at 2; A5c at 11 and 41) [(4CN-Phe^1, Aib^2, A5c^11, 41)hGIP(1-42)-OH]"
19,5.82,"FXEGTFISDYXIAMDKIHQQDFVNWLLAQKGKKNDWKHNIXQ (4F-Phe at 1; Aib at 2; A5c at 11 and 41) [(4F-Phe^1, Aib^2, A5c^11, 41)hGIP(1-42)-OH]"
20,7.52,"FXEGTFISDYXIAMDKIHQQDFVNWLLAQKGKKNDWKHNIXQ (3OH-Phe at 1; Aib at 2; A5c at 11 and 41) [(3OH-Phe^1, Aib^2, A5c^11, 41)hGIP(1-42)-OH]"
21,0.6,"YXEGTFISDYXIAXDKIHQQDFVNWLLAQKGKKNDWKHNITQ (3Br-Tyr at 1; Aib at 2; A5c at 11; Nle at 14) [(3Br-Tyr^1, Aib^2, A5c^11, Nle^14)hGIP(1-42)-OH]"
22,4.26,"YXEGTFISDYSIXXDKIHQQDFVNWLLAQKGKKNDWKHNITQ (3,5Br-Tyr at 1; Aib at 2 and 13; Nle at 14) [(3,5Br-Tyr^1, Aib^2, 13, Nle^14)hGIP(1-42)-OH]"
23,3.18,"HXEGTFISDYXIAXDKIHQQDFVNWLLAQKGKKNDWKHNITQ (Aib at 2; A5c at 11; Nle at 14) [(His^1, Aib^2, A5c^11, Nle^14)hGIP(1-42)-OH]"
24,21.8,"YXEGTFISDYXIAXDKIHQQDFVNWLLAQKGKKNDWKHNITQ (3,5Br-Tyr at 1; Aib at 2; A5c at 11; Nle at 14) [(3,5Br-Tyr^1, Aib^2, A5c^11, Nle^14)hGIP(1-42)-OH]"
25,0.42,"YXEGTFISDYXIAXDKIHQQDFVNWLLAQKGKKNDWKHNITQ (3Cl-Tyr at 1; Aib at 2; A5c at 11; Nle at 14) [(3Cl-Tyr^1, Aib^2, A5c^11, Nle^14)hGIP(1-42)-OH]"
